Experimental findings from US20230365711A1 (Hoffmann-La Roche, published 2023) are described below.

Substitutions are numbered along the chain they refer to.

Experiment [1] concerns the target huNABA-avi-his (hybrid protein N-A1-B3-A2: N and A1 domains of human BGP, B3 domain of human CEA, A2 domain of BGP, with precision protease site, avi tag and (His)6 tag), biotinylated (human). The experiment can be described thus: Biacore on immobilized NABA-avi-his; Bivalent Affinity.
The target of experiment [2] is T1, huNABA-avi-his (hybrid protein N-A1-B3-A2: N and A1 domains of human BGP, B3 domain of human CEA, A2 domain … (human, biotinylated at the avi tag (in vivo, co-transfected biotin ligase))).
T1 construct: also called NABA-avi-his reagent; biotinylated NABA
T1 chain: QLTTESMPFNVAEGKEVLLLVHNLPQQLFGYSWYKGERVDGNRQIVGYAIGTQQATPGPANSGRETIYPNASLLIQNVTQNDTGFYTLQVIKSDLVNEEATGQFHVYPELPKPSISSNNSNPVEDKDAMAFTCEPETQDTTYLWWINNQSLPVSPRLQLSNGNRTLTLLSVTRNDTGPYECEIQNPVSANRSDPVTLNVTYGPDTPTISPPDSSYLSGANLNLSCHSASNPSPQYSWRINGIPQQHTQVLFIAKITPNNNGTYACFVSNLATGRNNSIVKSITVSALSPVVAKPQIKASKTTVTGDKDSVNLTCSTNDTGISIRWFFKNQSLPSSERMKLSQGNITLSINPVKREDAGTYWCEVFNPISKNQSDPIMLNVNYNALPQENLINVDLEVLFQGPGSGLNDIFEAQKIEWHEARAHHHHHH
The experiment can be described thus: Biacore, column Affinity, CDR-H3 rows; antigen not named on the sheet, NABA-avi-his per paragraph 230.

Experiment [3] has as its target T1, huNABA-avi-his (hybrid protein …). The experiment can be described thus: Biacore, column Affinity, CDR-H1 and CDR-H2 rows; antigen not named on the sheet, NABA-avi-his per paragraph 230. For orientation: In SPR one partner is held on a chip, and binding of the other changes the refractive index at the surface.
Experiment [4] has the same target. The experiment can be described thus: Biacore, Fab on immobilized NABA-avi-his; column Monovalent Affinity.
Experiment [5] shares this target. The experiment can be described thus: Biacore, column Affinity, CDR-L1 and CDR-L2 rows; antigen not named on the sheet, NABA-avi-his per paragraph 230.
For experiment [6] the target is unchanged. Nature of the experiment: Biacore, column Affinity, CDR-H1 and CDR-H2 rows; antigen not named on the sheet, NABA-avi-his per paragraph 230.
Experiment [7] has as its target T2, human carcinoembryonic antigen (CEA), membrane-bound on cells (human, UniProt P06731 35-685).
T2 construct: whole, on cells; also called CEACAM-5; CD66e
T2 sequence (looked up): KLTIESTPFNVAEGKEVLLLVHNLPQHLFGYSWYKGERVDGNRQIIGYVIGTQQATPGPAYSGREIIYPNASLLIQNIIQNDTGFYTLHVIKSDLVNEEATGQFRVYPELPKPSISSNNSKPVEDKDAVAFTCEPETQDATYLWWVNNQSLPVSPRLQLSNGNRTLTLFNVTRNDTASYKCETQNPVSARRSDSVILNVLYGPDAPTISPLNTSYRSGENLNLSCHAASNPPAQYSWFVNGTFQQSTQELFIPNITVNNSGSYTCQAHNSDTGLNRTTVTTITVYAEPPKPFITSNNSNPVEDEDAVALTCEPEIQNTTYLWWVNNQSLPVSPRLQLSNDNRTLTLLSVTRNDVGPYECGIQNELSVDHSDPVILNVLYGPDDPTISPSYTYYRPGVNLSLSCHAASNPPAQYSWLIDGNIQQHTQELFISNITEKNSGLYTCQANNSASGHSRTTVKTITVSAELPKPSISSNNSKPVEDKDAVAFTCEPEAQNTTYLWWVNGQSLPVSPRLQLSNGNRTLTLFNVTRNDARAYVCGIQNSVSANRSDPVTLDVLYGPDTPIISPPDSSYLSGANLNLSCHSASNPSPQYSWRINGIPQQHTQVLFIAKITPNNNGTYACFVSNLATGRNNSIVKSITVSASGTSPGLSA
Nature of the experiment: flow cytometry on MKN45 cells, IgG1/kappa. How it is done:
(§1) An affinity matured heavy chain variable region construct, CH7A rF9, and an affinity matured light chain variable region construct, CL1A rH11, were paired with the parent light chain variable region construct and the heavy chain variable region construct, respectively, and with each other. All antibodies were converted into human IgG1/kappa and binding to the CEA-positive cell-line MKN45 was measured by flow cytometry. […] The matured light chain shifts the EC50 values to lower numbers, whereas the matured heavy chains (rF9 in FIG. 6, and rB9 in FIG. 15) shift the total fluorescence signal intensity in a flow-cytometry measurement. […] The combination of these two chains increases the affinity even further.

In experiment [8] the target is T2, human carcinoembryonic antigen (CEA), …. Nature of the experiment: flow cytometry on MKN45 cells, IgG [upper panel]. How it is done:
as §1
For orientation: Flow cytometry measures light scatter and fluorescence of single cells or particles in a stream.

Experiment [9] concerns the target T1, huNABA-avi-his (hybrid protein …). Nature of the experiment: Proteon SPR, antibody analyte on biotinylated NABA (Neutravidin chip); column Ka (M). The source says: (§2) Proteon (Biacore) sensorgrams were obtained for the binding of the combined framework and CDR-H3 variants to the CEA antigen-harbouring chimeric protein NABA. […] The precursor clone 5L1A10 and the parental antibody CH7A were included for direct comparison. All antibodies tested in this assay had 2F1 as the light chain FIG. 25.

Experiment [10] has the same target. The experiment is described as above.
Experiment [11] has the same target. The description is as above. An excerpt: (§3) Shown in FIG. 22 are Proteon (Biacore) sensorgrams obtained for the binding of the CDR-H3 antibody variants to the CEA antigen-harbouring chimeric protein NABA. […] The affinity matured precursor clone 5HFF12 and the parental antibody CH7A were included for direct comparison. All antibodies tested in this assay had 2F1 as the light chain. […] The relative affinity of each, measured in the bivalent form, is as follows: 5HFF12>CH7A (Y98A/D99Y)>CH7A (Y98A)>CH7A>CH7A (E102Q)>CH7A (D99Y)>CH7A (D99H)>CH7A (A103T)>CH7A (V101F)>CH7A (W95Y).

The target is the same in experiment [12]. The experiment can be described thus: Proteon SPR, antibody analyte on biotinylated NABA (Neutravidin chip).
Text: as §2

For experiment [13] the target is unchanged. The experiment can be described thus: Biacore on immobilized NABA-avi-his; Bivalent Affinity.
The target is the same in experiment [14]. Nature of the experiment: Proteon SPR, antibody analyte on biotinylated NABA (Neutravidin chip).
The target is the same in experiment [15]. The description is as above.
Text: as §3

Experiment [16] shares this target. Nature of the experiment: Biacore SPR, Fab; antigen not named on the sheet, NABA-avi-his per paragraph 230.
For experiment [17], the target named is T2, human carcinoembryonic antigen (CEA), …. Nature of the experiment: flow cytometry on CEA positive MKN45 cells, IgG [lower panel]. As to the method: as §1

For orientation: koff means a measure of how fast the partners let go of each other. A word on the kon: it is the rate constant with which the complex forms. As usually defined, the EC50 (read off the curve) is the midpoint of the concentration-response curve.

B1: H3 Full (5) 19 (Fab, V domains shown)
VH: QVQLVQSGSELKKPGASVKVSCKASGYTFTEFGMSWVRQAPGQGLEWMGWINTKTGEATYVEEFKGRFVFSLDTSVSTAYLQISSLKAEDTAVYYCARWDAFEYVKALDYWGQGTTVTVSS
VL: DIQMTQSPSSLSASVGDRVTITCKASQNVGTNVAWYQQKPGKAPKLLIYSASYRYSGVPSRFSGSGSGTDFTLTISSLQPEDFATYYCHQYYTYPLFTFGQGTKLEIK
For the molecule B1, the Kd in experiment [1] turned out to be 0.19 nM; in experiment [2], 26 nM; in experiment [3], 26 nM; in experiment [4], 24 nM. For the same molecule, the koff in experiment [1] came out at 0.000175 s⁻¹; in experiment [4], 0.0013 s⁻¹. Moreover, the kon in [1] stood at 902000 M⁻¹ s⁻¹; in experiment [4], 54200 M⁻¹ s⁻¹.

B2: PR1A3 (Fab, V domains shown)
VH: B1 VH with S35N, A101F, F102Y, E103D, K106E, L108M
VL: B1 VL
notes: also called PR1A3 wt/wt; pMS22
Consider B2, for which the Kd was 3680 nM in experiment [5], 3680 nM in experiment [2], 3680 nM in [4] and 3.68 µM in [6]. This molecule also gave a koff in experiment [4] of 0.0248 s⁻¹. The molecule also came in with a kon in experiment [4] of 6740 M⁻¹ s⁻¹.

B3: antibody with parent heavy chain variable region CH7A and affinity matured light chain variable region CL1A rH11 (antibody, V domains shown)
VH: B1 VH with S35N, A101F, F102Y, E103D, K106E, L108M
VL: B1 VL with N28T, G30S, T31A, S50L, S56R
notes: The suffix G2(1) is not explained; also called CH7A, CL1ArH11; CH7A, CL1A rH11 G2(1)
Consider B3, for which the results for the “EC50 (read off the curve)” value in experiment [7] and in experiment [8] were about 0.3 µg/mL and about 0.5 µg/mL, respectively.

B4: humanized PR1A3 antibody with heavy chain variable region CH7A and light chain variable region 2F1 (antibody, V domains shown)
VH: B1 VH with S35N, A101F, F102Y, E103D, K106E, L108M
VL: DIQMTQSPSSLSASVGDRVTITCKASAAVGTYVAWYQQKPGKAPKLLIYSASYRKRGVPSRFSGSGSGTDFTLTISSLQPEDFATYYCHQYYTYPLFTFGQGTKLEIKR
notes: Measured in the bivalent form; also called CH7Ax2F1; parental antibody CH7A
Take B4: the kon worked out at 369000 M⁻¹ s⁻¹ in [9], 122000 M⁻¹ s⁻¹ in [10], 132000 M⁻¹ s⁻¹ in experiment [11] and 423000 M⁻¹ s⁻¹ in [13]. Also, the Kd in [12] was determined as 1.97 nM; in experiment [13], 0.952 nM; in experiment [14] it was 1.84 nM; in experiment [15], 1.07 nM. For the same molecule, the koff in experiment [13] amounted to 0.00041 s⁻¹.

B5: anti-CEA Fab with unmatured heavy chain CH7A and affinity matured light chain CL1A pAC18 (Fab, V domains shown)
VH: B1 VH with S35N, A101F, F102Y, E103D, K106E, L108M
VL: B4 VL
notes: Fab format, bacterially expressed; also called CH7A + CL1A pAC18
Molecule B5 showed a Kd in experiment [5] of 220 nM. In experiment [16], the Kd is 216 nM. In [4], this molecule displayed a Kd of 220 nM, a koff of 0.0207 s⁻¹ and a kon of 95700 M⁻¹ s⁻¹.

B6: antibody with affinity matured heavy chain variable region CH7A rB9 and affinity matured light chain variable region CL1A rH11 G2(1) (antibody, V domains shown)
VH: B1 VH with S35N, T55S, A101F, F102Y, E103D, K106E, L108M
VL: B1 VL with N28T, G30S, T31A, S50L, S56R
notes: also called CH7A rB9, CL1A rH11 G2(1); CH7ArB9, CL1A rH11G2(1)
Consider B6, for which, in [17], the “EC50 (read off the curve)” value is about 0.5 µg/mL.

B7: anti-CEA Fab with affinity matured heavy chain CH7A H4E9 and affinity matured light chain CL1A pAC18 (Fab, V domains shown)
VH: B1 VH with S35N, V61I, A101F, F102Y, E103D, K106E, L108M
VL: B4 VL
notes: Fab format, bacterially expressed; also called CH7A H4E9 and CL1A pAC18
In experiment [16], B7 came in with a Kd of 96 nM. In experiment [4], this molecule returned a Kd of 96 nM, a koff of 0.0035 s⁻¹ and a kon of 36400 M⁻¹ s⁻¹.

B8: humanized PR1A3 antibody comprising heavy chain variable region construct CH7A and light chain variable region construct CL1A (antibody, human IgG1, V domains shown)
VH: B1 VH with S35N, A101F, F102Y, E103D, K106E, L108M
VL: B1 VL
notes: also called CH7A CL1A; CH7A, CL1A
Consider B8, for which the “EC50 (read off the curve)” value in experiment [7] was about 0.6 µg/mL. In experiment [13], this molecule returned a Kd of 2 nM, a koff of 0.000552 s⁻¹ and a kon of 282000 M⁻¹ s⁻¹. Further, the “EC50 (read off the curve)” value in [17] was about 0.6 µg/mL.

B9: antibody with heavy chain variable region CH7A and affinity matured light chain variable region CL1A rH7 (antibody, V domains shown)
VH: B1 VH with S35N, A101F, F102Y, E103D, K106E, L108M
VL: B1 VL with N28K, G30L, S50L
notes: also called CH7A, CL1ArH7
For B9, the “EC50 (read off the curve)” value in experiment [8] is about 0.7 µg/mL.
